Experimental data reported in patent US10239925B2, “Peptides and combination of peptides for use in immunotherapy against ovarian cancer and other cancers” (IMMATICS BIOTECHNOLOGIES GMBH, priority 2015, dated 2019).

Assays:
CD8+ T cells = assay: In vitro immunogenicity: priming of CD8+ T cells with aAPCs loaded with peptide/MHC and anti-CD28, multimer readout; type: cell-based, human; conditions: for Wells positive [%]: HLA-A*02 restricted peptides, percentage of positive wells (among evaluable); for donors: percentage of positive donors; for wells: percentage of positive wells
Protocol: In an aspect, the peptides are pre-screened for immunogenicity before being included in the warehouse. By way of example, and not limitation, the immunogenicity of the peptides included in the warehouse is determined by a method comprising in vitro T-cell priming through repeated stimulations of CD8+ T cells from healthy donors with artificial antigen presenting cells loaded with peptide/MHC complexes and anti-CD28 antibody.
FIGS. 3A to 3F show exemplary immunogenicity data: flow cytometry results after peptide-specific multimer staining. CD8+ T cells were primed using artificial APCs coated with anti-CD28 mAb and HLA-A*02 in complex with SeqID No 662 (FIG. 3A, left panel), SeqID No 663 (FIG. 3B, left panel), SeqID No 11 peptide (FIG. 3C, left panel), SeqID No 198 peptide (FIG. 3D, left panel), SeqID No 587 peptide (FIG. 3E, left panel) and SeqID No 427 peptide (FIG. 3F, left panel), respectively. After three cycles of stimulation, the detection of peptide-reactive cells was performed by 2D multimer staining with A*02/SeqID No 662 (FIG. 3A), A*02/SeqID No 663 (FIG. 3B), A*02/SeqID No 11 (FIG. 3C), A*02/SeqID No 198 (FIG. 3D), A*02/SeqID No 587 (FIG. 3E) or A*02/SeqID No 427 (FIG. 3F). Right panels (FIGS. 3A, 3B, 3C, 3D, 3E, and 3F) show control staining of cells stimulated with irrelevant A*02/peptide complexes. Viable singlet cells were gated for CD8+ lymphocytes. Boolean gates helped excluding false-positive events detected with multimers specific for different peptides. Frequencies of specific multimer+ cells among CD8+ lymphocytes are indicated.
In Vitro Immunogenicity for MHC Class I Presented Peptides
In order to obtain information regarding the immunogenicity of the TUMAPs of the present invention, the inventors performed investigations using an in vitro T-cell priming assay based on repeated stimulations of CD8+ T cells with artificial antigen presenting cells (aAPCs) loaded with peptide/MHC complexes and anti-CD28 antibody.
In Vitro Priming of CD8+ T Cells
In order to perform in vitro stimulations by artificial antigen presenting cells loaded with peptide-MHC complex (pMHC) and anti-CD28 antibody, the inventors first isolated CD8+ T cells from fresh HLA-A*02 leukapheresis products via positive selection using CD8 microbeads (Miltenyi Biotec, Bergisch-Gladbach, Germany) of healthy donors obtained from the University clinics Mannheim, Germany, after informed consent.
PBMCs and isolated CD8+ lymphocytes were incubated in T-cell medium (TCM) until use consisting of RPMI-Glutamax (Invitrogen, Karlsruhe, Germany) supplemented with 10% heat inactivated human AB serum (PAN-Biotech, Aidenbach, Germany), 100 U/ml Penicillin/100 μg/ml Streptomycin (Cambrex, Cologne, Germany), 1 mM sodium pyruvate (CC Pro, Oberdorla, Germany), 20 μg/ml Gentamycin (Cambrex). 2.5 ng/ml IL-7 (PromoCell, Heidelberg, Germany) and 10 U/ml IL-2 (Novartis Pharma, Nümberg, Germany) were also added to the TCM at this step.
Generation of pMHC/anti-CD28 coated beads, T-cell stimulations and readout was performed in a highly defined in vitro system using four different pMHC molecules per stimulation condition and 8 different pMHC molecules per readout condition.
The purified co-stimulatory mouse IgG2a anti human CD28 Ab 9.3 (Jung et al., 1987) was chemically biotinylated using Sulfo-N-hydroxysuccinimidobiotin as recommended by the manufacturer (Perbio, Bonn, Germany). Beads used were 5.6 μm diameter streptavidin coated polystyrene particles (Bangs Laboratories, Illinois, USA).
pMHC used for positive and negative control stimulations were A*0201/MLA-001 (peptide […] (SEQ ID NO. 664) from modified Melan-A/MART-1) and A*0201/DDX5-001 ([…] from DDX5, SEQ ID NO. 665), respectively.
800.000 beads/200 μl were coated in 96-well plates in the presence of 4×12.5 ng different biotin-pMHC, washed and 600 ng biotin anti-CD28 were added subsequently in a volume of 200 μl. […]

HLA-A*02:01 = HLA-A*02:01 (Homo sapiens, UniProt P04439, D140Y/D185E/D98H/E176V/E277Q/G131W/G231S/I119V/I121R/I166T/I218V/L300P/L318F/N151K/N90K/P208A/P217A/Q86G/Q94H/R138H/R169H/T345S); assay: MHC binding assay (UV-ligand exchange, anti-β2m ELISA, peptide exchange yield); conditions: binding to HLA-A*02:01
Procedure, shortened: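 Peptide-MHC complexes formed by UV-ligand exchange, cleaving a UV-sensitive placeholder peptide in favour of the test peptide. Exchange yield measured by ELISA: monomers diluted 100-fold onto streptavidin-coated plates, 1 h 37 °C, detected with 2 ug/ml HRP anti-β2m and TMB, absorbance at 450 nm.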

2 (SLLEADPFL; listed as Homo sapiens) [compound 2]
Wells positive [%] (CD8+ T cells): “+” (<20% = +)
Peptide exchange (MHC class I binding score, peptide exchange yield) (HLA-A*02:01): “+++” (>50 = +++)

3 (SLASKLTTL; listed as Homo sapiens) [compound 3]
Wells positive [%] (CD8+ T cells): “+” (<20% = +)
Peptide exchange (MHC class I binding score, peptide exchange yield) (HLA-A*02:01): “++++” (>75% = ++++)

5 (HLTEVYPEL; listed as Homo sapiens) [compound 5]
Wells positive [%] (CD8+ T cells): “+++” (50% - 69% = +++)
Peptide exchange (MHC class I binding score, peptide exchange yield) (HLA-A*02:01): “+++” (>50 = +++)

7 (SLVGLLLYL; listed as Homo sapiens) [compound 7]
Wells positive [%] (CD8+ T cells): “++” (20% - 49% = ++)
Peptide exchange (MHC class I binding score, peptide exchange yield) (HLA-A*02:01): “++++” (>75% = ++++)

8 (FTLGNVVGMYL; listed as Homo sapiens) [compound 8]
Wells positive [%] (CD8+ T cells): “+” (<20% = +)
Peptide exchange (MHC class I binding score, peptide exchange yield) (HLA-A*02:01): “++++” (>75% = ++++)

11 (KIFEMLEGV; listed as Homo sapiens) [compound 11]
Wells positive [%] (CD8+ T cells): “+” (<20% = +)
Peptide exchange (MHC class I binding score, peptide exchange yield) (HLA-A*02:01): “+++” (>50 = +++)

17 (GLLPGDRLVSV; listed as Homo sapiens) [compound 17]
Wells positive [%] (CD8+ T cells): “++” (20% - 49% = ++)
Peptide exchange (MHC class I binding score, peptide exchange yield) (HLA-A*02:01): “+++” (>50 = +++)

19 (FMVDNEAIYDI; listed as Homo sapiens) [compound 19]
Wells positive [%] (CD8+ T cells): “++” (20% - 49% = ++)
Peptide exchange (MHC class I binding score, peptide exchange yield) (HLA-A*02:01): “++++” (>75% = ++++)

36 (YVLEDLEVTV; listed as Homo sapiens) [compound 36]
Wells positive [%] (CD8+ T cells): “+” (<20% = +)
Peptide exchange (MHC class I binding score, peptide exchange yield) (HLA-A*02:01): “++” (>20% = ++)

38 (FLLEDDIHVS; listed as Homo sapiens) [compound 38]
Wells positive [%] (CD8+ T cells): “+” (<20% = +)
Peptide exchange (MHC class I binding score, peptide exchange yield) (HLA-A*02:01): “+++” (>50 = +++)

40 (TLLVKVFSV; listed as Homo sapiens) [compound 40]
Wells positive [%] (CD8+ T cells): “++” (20% - 49% = ++)
Peptide exchange (MHC class I binding score, peptide exchange yield) (HLA-A*02:01): “+++” (>50 = +++)

48 (ALAELYEDEV; listed as Homo sapiens) [compound 48]
Wells positive [%] (CD8+ T cells): “+” (<20% = +)
Peptide exchange (MHC class I binding score, peptide exchange yield) (HLA-A*02:01): “+++” (>50 = +++)

49 (YLPAVFEEV; listed as Homo sapiens) [compound 49]
Wells positive [%] (CD8+ T cells): “++” (20% - 49% = ++)
Peptide exchange (MHC class I binding score, peptide exchange yield) (HLA-A*02:01): “+++” (>50 = +++)

56 (KLYEGIPVLL; listed as Homo sapiens) [compound 56]
Wells positive [%] (CD8+ T cells): “+” (<20% = +)
Peptide exchange (MHC class I binding score, peptide exchange yield) (HLA-A*02:01): “++++” (>75% = ++++)

60 (SLTIDGIYYV; listed as Homo sapiens) [compound 60]
Wells positive [%] (CD8+ T cells): “++++” (≥70% = ++++)
Peptide exchange (MHC class I binding score, peptide exchange yield) (HLA-A*02:01): “++++” (>75% = ++++)

61 (FLQGYQLHL; listed as Homo sapiens) [compound 61]
Wells positive [%] (CD8+ T cells): “++” (20% - 49% = ++)
Peptide exchange (MHC class I binding score, peptide exchange yield) (HLA-A*02:01): “++++” (>75% = ++++)

79 (SLFIGEKAVLL; listed as Homo sapiens) [compound 79]
Wells positive [%] (CD8+ T cells): “+” (<20% = +)
Peptide exchange (MHC class I binding score, peptide exchange yield) (HLA-A*02:01): “+++” (>50 = +++)

108 (ALFPGVALLLA; listed as Homo sapiens) [compound 108]
Wells positive [%] (CD8+ T cells): “++” (20% - 49% = ++)
Peptide exchange (MHC class I binding score, peptide exchange yield) (HLA-A*02:01): “++++” (>75% = ++++)

113 (GLLPTPLFGV; listed as Homo sapiens) [compound 113]
Wells positive [%] (CD8+ T cells): “+” (<20% = +)
Peptide exchange (MHC class I binding score, peptide exchange yield) (HLA-A*02:01): “+++” (>50 = +++)

608 (SLLSVSHAL; listed as Homo sapiens) [compound 608]
Peptide exchange (MHC class I binding score, peptide exchange yield) (HLA-A*02:01): “+++” (>50 = +++)

609 (ALWKQLLEL; listed as Homo sapiens) [compound 609]
Peptide exchange (MHC class I binding score, peptide exchange yield) (HLA-A*02:01): “+++” (>50 = +++)

610 (LLAPTPYIIGV; listed as Homo sapiens) [compound 610]
Peptide exchange (MHC class I binding score, peptide exchange yield) (HLA-A*02:01): “+++” (>50 = +++)

611 (YLLDDGTLVV; listed as Homo sapiens) [compound 611]
Peptide exchange (MHC class I binding score, peptide exchange yield) (HLA-A*02:01): “++++” (>75% = ++++)

612 (YLYNEGLSV; listed as Homo sapiens) [compound 612]
Peptide exchange (MHC class I binding score, peptide exchange yield) (HLA-A*02:01): “+++” (>50 = +++)

613 (RLLPPGAVVAV; listed as Homo sapiens) [compound 613]
Peptide exchange (MHC class I binding score, peptide exchange yield) (HLA-A*02:01): “+++” (>50 = +++)

614 (LLLPDQPPYHL; listed as Homo sapiens) [compound 614]
Peptide exchange (MHC class I binding score, peptide exchange yield) (HLA-A*02:01): “+++” (>50 = +++)

615 (VLPPDTDPA; listed as Homo sapiens) [compound 615]
Peptide exchange (MHC class I binding score, peptide exchange yield) (HLA-A*02:01): “++” (>20% = ++)

616 (VLIDEVESL; listed as Homo sapiens) [compound 616]
Peptide exchange (MHC class I binding score, peptide exchange yield) (HLA-A*02:01): “+++” (>50 = +++)

617 (ALMYESEKVGV; listed as Homo sapiens) [compound 617]
Peptide exchange (MHC class I binding score, peptide exchange yield) (HLA-A*02:01): “+++” (>50 = +++)

618 (VLFDSESIGIYV; listed as Homo sapiens) [compound 618]
Peptide exchange (MHC class I binding score, peptide exchange yield) (HLA-A*02:01): “+++” (>50 = +++)

619 (ALQDRVPLA; listed as Homo sapiens) [compound 619]
Peptide exchange (MHC class I binding score, peptide exchange yield) (HLA-A*02:01): “+++” (>50 = +++)

620 (KLLNKIYEA; listed as Homo sapiens) [compound 620]
Peptide exchange (MHC class I binding score, peptide exchange yield) (HLA-A*02:01): “++++” (>75% = ++++)

621 (VLMDRLPSLL; listed as Homo sapiens) [compound 621]
Peptide exchange (MHC class I binding score, peptide exchange yield) (HLA-A*02:01): “++++” (>75% = ++++)

622 (RLLGEEVVRVLQA; listed as Homo sapiens) [compound 622]
Peptide exchange (MHC class I binding score, peptide exchange yield) (HLA-A*02:01): “+++” (>50 = +++)

623 (YLVEDIQHI; listed as Homo sapiens) [compound 623]
Peptide exchange (MHC class I binding score, peptide exchange yield) (HLA-A*02:01): “+++” (>50 = +++)

635 (SLDSTLHAV; listed as Homo sapiens) [compound 635]
Peptide exchange (MHC class I binding score, peptide exchange yield) (HLA-A*02:01): “+++” (>50 = +++)

648 (LLWGNAIFL; listed as Homo sapiens) [compound 648]
donors (CD8+ T cells): +++ (50% - 69% = +++)
wells (CD8+ T cells): ++ (20% - 49% = ++)

652 (TLWYRAPEV; listed as Homo sapiens) [compound 652]
donors (CD8+ T cells): ++++ (≥70% = ++++)
wells (CD8+ T cells): +++ (50% - 69% = +++)

659 (ILFPDIIARA; listed as Homo sapiens) [compound 659]
donors (CD8+ T cells): +++ (50% - 69% = +++)
wells (CD8+ T cells): + (<20% = +)

662 (KIQEILTQV; listed as Homo sapiens) [compound 662]
donors (CD8+ T cells): +++ (50% - 69% = +++)
wells (CD8+ T cells): + (<20% = +)

663 (KIQEMQHFL; listed as Homo sapiens) [compound 663]
donors (CD8+ T cells): +++ (50% - 69% = +++)
wells (CD8+ T cells): + (<20% = +)
